Laboratory results taken from article PMC7031110 (Cell, 2014).

Molecular target: CaMKIIα (UniProt P11275 1-478)
Test: fluorescence polarisation

CaMKIIα, sequence (P11275 whole entry): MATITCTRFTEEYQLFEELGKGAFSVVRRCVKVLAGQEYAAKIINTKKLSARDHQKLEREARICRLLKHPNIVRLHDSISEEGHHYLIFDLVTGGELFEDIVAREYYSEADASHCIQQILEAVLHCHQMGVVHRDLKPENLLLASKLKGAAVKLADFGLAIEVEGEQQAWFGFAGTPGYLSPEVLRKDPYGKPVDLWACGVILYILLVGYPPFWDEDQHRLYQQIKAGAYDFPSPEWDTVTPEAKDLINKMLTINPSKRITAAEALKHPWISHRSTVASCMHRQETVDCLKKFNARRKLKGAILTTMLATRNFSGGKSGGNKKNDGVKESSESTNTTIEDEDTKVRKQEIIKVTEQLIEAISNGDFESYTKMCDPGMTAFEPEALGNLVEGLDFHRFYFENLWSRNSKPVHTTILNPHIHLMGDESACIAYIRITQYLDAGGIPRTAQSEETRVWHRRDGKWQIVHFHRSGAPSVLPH

B1: IQ peptide TVGKFYATFLIQEYFR of Cav1.2/Cav1.3 (peptide)
peptide: TVGKFYATFLIQEYFR
For B1, the Kd was 31 ± 7 nM.
